In data set [1] the target is T1, 3β-hydroxy-Δ^5-C27-steroid oxidoreductase (HSD3B7) (Homo sapiens, UniProt Q9H2F3).
T1 construct: WT, N-terminal 6x histidine tag
T1 sequence (Q9H2F3 1-369): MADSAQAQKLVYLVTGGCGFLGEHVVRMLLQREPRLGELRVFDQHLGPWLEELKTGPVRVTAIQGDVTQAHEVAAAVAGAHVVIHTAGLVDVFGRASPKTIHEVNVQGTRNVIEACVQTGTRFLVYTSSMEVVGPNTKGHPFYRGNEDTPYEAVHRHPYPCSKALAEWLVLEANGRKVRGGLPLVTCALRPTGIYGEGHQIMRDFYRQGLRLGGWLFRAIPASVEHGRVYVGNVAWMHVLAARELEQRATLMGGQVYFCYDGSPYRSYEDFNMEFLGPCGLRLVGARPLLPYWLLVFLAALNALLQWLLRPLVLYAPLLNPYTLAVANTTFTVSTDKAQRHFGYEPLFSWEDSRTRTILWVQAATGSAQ
Description: FRET from intrinsic tryptophan fluorescence to NADH, Morrison fit. Format: binding.

Data set [2] concerns the target 3β-HSD dehydrogenase type II (HSD3B2) (UniProt P26439). Kind of data set: cross-linking; chemical crosslinking in solution, bands on a gel.
Data set [3] deals with 3β-HSD dehydrogenase type I (HSD3B1) (UniProt P14060). The description is as above.
Substrate in data set [4]: CC(C)CCC[C@@H](C)[C@H]1CC[C@H]2[C@@H]3[C@H](O)C=C4C[C@@H](O)CC[C@]4(C)[C@H]3CC[C@]12C
Description: steady-state kinetics of purified enzyme (NAD(P)H-Glo), Km. Format: biochemical, Homo sapiens. Set-up: kcat / Vmax: unit not given here. The conditions noted are these: NAD+ predicted oxysterol pocket; F93, F205, I201; near Y-S-N-K tetrad (docking).

Substrate in data set [5]: CC(CCCC(C)C1CCC2C3C(O)C=C4C[C@@H](O)CC[C@]4(C)C3CC[C@]12C)C(=O)O
The description is as above. Format: biochemical, Homo sapiens. Details: kcat / Vmax: unit not given here. The conditions noted are these: NAD+ predicted oxysterol pocket; F93, F205, I201 (docking).

Substrate in data set [6]: C[C@@H](CO)CCC[C@@H](C)[C@H]1CC[C@H]2[C@@H]3[C@H](O)C=C4C[C@@H](O)CC[C@]4(C)[C@H]3CC[C@]12C
The description is as above. Type of data set: biochemical, Homo sapiens. Set-up: kcat / Vmax: unit not given here. The settings on record: NAD+ predicted oxysterol pocket; F93, F205, I201, Q208 (docking).

Substrate in data set [7]: C[C@H](CCCC(C)(C)O)[C@H]1CC[C@H]2[C@@H]3[C@H](O)C=C4C[C@@H](O)CC[C@]4(C)[C@H]3CC[C@]12C
Described as above. Type of data set: biochemical, Homo sapiens. Set-up: kcat / Vmax: unit not given here. The settings on record: NAD+ predicted oxysterol pocket; F93, F205, I201 (docking).

Substrate in the data set “purified protein”: NC(=O)c1ccc[n+]([C@@H]2O[C@H](COP(=O)([O-])OP(=O)(O)OC[C@H]3O[C@@H](n4cnc5c(N)ncnc54)[C@H](O)[C@@H]3O)[C@@H](O)[C@H]2O)c1
Kind of data set: purified protein. The settings on record: varied: cofactor. Format: biochemical, Homo sapiens.

Substrate in data set [8]: CC(C)CCC[C@@H](C)[C@H]1CC[C@H]2[C@@H]3[C@H](O)C=C4C[C@@H](O)CC[C@]4(C)[C@H]3CC[C@]12C
Description: steady-state kinetics of purified mutant, Km. Format: biochemical, Homo sapiens. The conditions noted are these: NAD+ predicted oxysterol binding pocket.

Substrate in data set [9]: CC(C)CCC[C@@H](C)[C@H]1CC[C@H]2[C@@H]3[C@H](O)C=C4C[C@@H](O)CC[C@]4(C)[C@H]3CC[C@]12C
Kind of data set: steady-state kinetics of purified mutant, apparent Km. Format: biochemical, Homo sapiens. The settings on record: NAD+ predicted oxysterol binding pocket.

Where [10] appears, read: conserved Rossmann fold domain (docking), binds first.

Changes are numbered by the printed parent chain. Numbers in names are those of the source.

`NC(=O)C1=CN([C@@H]2O[C@H](COP(=O)(O)OP(=O)(O)OC[C@H]3O[C@@H](n4cnc5c(N)ncnc54)[C@H](O)[C@@H]3O)[C@@H](O)[C@H]2O)C=CC1` [NADH]: the dissociation constant Kd in data set [1] was found to be 780 nM.
In [2], “3β-HSD dehydrogenase type II (HSD3B2) (from UniProt P26439 1-372) (enzyme)” came in with a stoichiometry N of 2.
“3β-HSD dehydrogenase type I (HSD3B1) (from UniProt P14060 1-373) (enzyme)” came in with a stoichiometry N in data set [3] of 2.

B1: 3β-hydroxy-Δ^5-C27-steroid oxidoreductase (HSD3B7) (Homo sapiens) (protein)
chain: T1 sequence (Q9H2F3 1-369)
notes: WT, N-terminal 6x histidine tag
As for B1, the Km in [4] is 17.4 µM; in data set [5], 8.6 µM; in data set [6], 3.8 µM; in [7] it was 18.3 µM; in the data set “purified protein” (setting [10]), 45.8 µM. The Vmax in data set [4] is listed as 735 (669.5, 812.3); in [5] it was 551.8 (513.5, 593.2); in [6], 532.0 (493.0, 573.4); in data set [7], 901.8 (785.3, 1044); in “purified protein” (setting [10]) it was 587.2 (550.0, 628.7). In addition, the kcat in data set [4] is reported as 30.9 (28.1, 34.1); in data set [5], 23.2 (21.6, 24.9); in data set [6] it was 22.4 (20.7, 24.1); in [7], 37.9 (33.0, 43.9); in “purified protein” (setting [10]), 24.7 (23.1, 26.4). Moreover, the kcat/Km in data set [4] is 30000 ± 10000 M⁻¹ s⁻¹; in [5], 45000 ± 17000 M⁻¹ s⁻¹; in [6], 98000 ± 22000 M⁻¹ s⁻¹; in data set [7], 35000 ± 12000 M⁻¹ s⁻¹; in “purified protein” (setting [10]) it was 9000 ± 3200 M⁻¹ s⁻¹.

B2: 3β-hydroxy-Δ^5-C27-steroid oxidoreductase (HSD3B7) (Homo sapiens; F205A) (protein)
chain: T1 sequence (Q9H2F3 1-369) with F205A
notes: F205A mutant
In the case of B2, in [8], the Km was 11.2 µM; the Vmax is reported as 76.6 (62.5, 96.0); the kcat is on record as 1.5 (1.3, 1.9); the kcat/Km is 2200 ± 700 M⁻¹ s⁻¹. Also, in “purified protein”, the Km worked out at 93.8 µM; the Vmax was 288.2 (255.0, 330.6); the kcat is on record as 5.8 (5.1, 6.6); the kcat/Km is 1000 ± 400 M⁻¹ s⁻¹.

B3: 3β-hydroxy-Δ^5-C27-steroid oxidoreductase (HSD3B7) (Homo sapiens; F93A) (protein)
chain: T1 sequence (Q9H2F3 1-369) with F93A
notes: F93A mutant
For the molecule B3, in data set [9], the Km was 58.2 µM; the Vmax is 286.5 (224.2, 405.0); the kcat was 14.3 (11.2, 20.3); the kcat/Km was 4100 ± 2000 M⁻¹ s⁻¹.

Values taken from PMC11648244, “Substrate specificity and kinetic mechanism of 3β-hydroxy- Δ ^5-C27-steroid oxidoreductase” (The Journal of Biological Chemistry, 2024).
